Results on 14 molecules are retold here after patent US20150337049A1 (published 2015).

B1: bsIgG1 huCD3-H3L1xHER2-LFLEDA (bispecific antibody)
heavy 1: EVKLVESGGGLVKPGRSLRLSCAASGFTFNTYAMNWVRQAPGKGLEWVARIRSKYNNYATYYADSVKDRFTISRDDSKSILYLQMNSLKTEDTAMYYCVRHGNFGNSYVSWFAYWGQGTLVTVSSASTKGPSVFPLAPSSKSTSGGTAALGCLVKDYFPEPVTVSWNSGALTSGVHTFPAVLQSSGLYSLSSVVTVPSSSLGTQTYICNVNHKPSNTKVDKRVEPKSCDKTHTCPPCPAPEFEGGPSVFLFPPKPKDTLMISRTPEVTCVVVAVSHEDPEVKFNWYVDGVEVHNAKTKPREEQYNSTYRVVSVLTVLHQDWLNGKEYKCKVSNKALPAPIEKTISKAKGQPREPQVYTLPPSREEMTKNQVSLTCLVKGFYPSDIAVEWESNGQPENNYKTTPPVLDSDGSFLLYSKLTVDKSRWQQGNVFSCSVMHEALHNHYTQKSLSLSPGK
VL 1: not shown
heavy 2: QVQLVQSGAEVKKPGASVKVSCKASGYTFTNYGISWVRQAPGQGLEWMGWLSAYSGNTIYAQKLQGRVTMTTDTSTTTAYMELRSLRSDDTAVYYCARDRIVVRPDYFDYWGQGTLVTVSSASTKGPSVFPLAPSSKSTSGGTAALGCLVKDYFPEPVTVSWNSGALTSGVHTFPAVLQSSGLYSLSSVVTVPSSSLGTQTYICNVNHKPSNTKVDKRVEPKSCDKTHTCPPCPAPEFEGGPSVFLFPPKPKDTLMISRTPEVTCVVVAVSHEDPEVKFNWYVDGVEVHNAKTKPREEQYNSTYRVVSVLTVLHQDWLNGKEYKCKVSNKALPAPIEKTISKAKGQPREPQVYTLPPSREEMTKNQVSLTCLVKGFYPSDIAVEWESNGQPENNYKTTPPVLDSDGSFFLYSRLTVDKSRWQQGNVFSCSVMHEALHNHYTQKSLSLSPGK
VL 2: EIVLTQSPATLSLSPGERATLSCRASQSVSSYLAWYQQKPGQAPRLLIYDASNRATGIPARFSGSGSGTDFTLTISSLEPEDFAVYYCQQRSNWPRTFGQGTKVEIK
B2: IgG1-huCD3-H3L1-LFLEDA (antibody, V domains shown)
VH: EVKLVESGGGLVKPGRSLRLSCAASGFTFNTYAMNWVRQAPGKGLEWVARIRSKYNNYATYYADSVKDRFTISRDDSKSILYLQMNSLKTEDTAMYYCVRHGNFGNSYVSWFAYWGQGTLVTVSS
VL: not shown
B3: bsIgG1 huCD3-H3L1×HER2-LFLEDA (bispecific antibody)
heavy 1: EVKLVESGGGLVKPGRSLRLSCAASGFTFNTYAMNWVRQAPGKGLEWVARIRSKYNNYATYYADSVKDRFTISRDDSKSILYLQMNSLKTEDTAMYYCVRHGNFGNSYVSWFAYWGQGTLVTVSSASTKGPSVFPLAPSSKSTSGGTAALGCLVKDYFPEPVTVSWNSGALTSGVHTFPAVLQSSGLYSLSSVVTVPSSSLGTQTYICNVNHKPSNTKVDKRVEPKSCDKTHTCPPCPAPEFEGGPSVFLFPPKPKDTLMISRTPEVTCVVVAVSHEDPEVKFNWYVDGVEVHNAKTKPREEQYNSTYRVVSVLTVLHQDWLNGKEYKCKVSNKALPAPIEKTISKAKGQPREPQVYTLPPSREEMTKNQVSLTCLVKGFYPSDIAVEWESNGQPENNYKTTPPVLDSDGSFLLYSKLTVDKSRWQQGNVFSCSVMHEALHNHYTQKSLSLSPGK
VL 1: not shown
heavy 2: QVQLVQSGAEVKKPGASVKVSCKASGYTFTNYGISWVRQAPGQGLEWMGWLSAYSGNTIYAQKLQGRVTMTTDTSTTTAYMELRSLRSDDTAVYYCARDRIVVRPDYFDYWGQGTLVTVSSASTKGPSVFPLAPSSKSTSGGTAALGCLVKDYFPEPVTVSWNSGALTSGVHTFPAVLQSSGLYSLSSVVTVPSSSLGTQTYICNVNHKPSNTKVDKRVEPKSCDKTHTCPPCPAPEFEGGPSVFLFPPKPKDTLMISRTPEVTCVVVAVSHEDPEVKFNWYVDGVEVHNAKTKPREEQYNSTYRVVSVLTVLHQDWLNGKEYKCKVSNKALPAPIEKTISKAKGQPREPQVYTLPPSREEMTKNQVSLTCLVKGFYPSDIAVEWESNGQPENNYKTTPPVLDSDGSFFLYSRLTVDKSRWQQGNVFSCSVMHEALHNHYTQKSLSLSPGK
VL 2: EIVLTQSPATLSLSPGERATLSCRASQSVSSYLAWYQQKPGQAPRLLIYDASNRATGIPARFSGSGSGTDFTLTISSLEPEDFAVYYCQQRSNWPRTFGQGTKVEIK
B4: IgG1-huCD3-H3L1 with LFLEDA mutations (antibody, V domains shown)
VH: EVKLVESGGGLVKPGRSLRLSCAASGFTFNTYAMNWVRQAPGKGLEWVARIRSKYNNYATYYADSVKDRFTISRDDSKSILYLQMNSLKTEDTAMYYCVRHGNFGNSYVSWFAYWGQGTLVTVSS
VL: not shown
B5: IgG1-huCD3-H4L1 (antibody, V domains shown)
VH: EVKLVESGGGLVKPGRSLRLSCAASGFTFNTYAMNWVRQAPGKGLEWVARIRSKYNNYATYYADSVKDRFTISRDDSKSILYLQMNSLKTEDTAMYYCVRHGNFGNSYVSWFAYWGQGTMVTVSS
VL: not shown
B6: IgG1-huCD3-H3L3 (antibody, V domains shown)
VH: EVKLVESGGGLVKPGRSLRLSCAASGFTFNTYAMNWVRQAPGKGLEWVARIRSKYNNYATYYADSVKDRFTISRDDSKSILYLQMNSLKTEDTAMYYCVRHGNFGNSYVSWFAYWGQGTLVTVSS
VL: QAVVTQEPSFSVSPGGTVTLTCRSSTGAVTTSNYANWVQQTPGQAFRGLIGGTNKRAPGVPARFSGSILGNKAALTITGAQADDESDYYCALWYSNLWVFGGGTKLTVL
B7: IgG1-huCD3-H1L2 (antibody, V domains shown)
VH: EVKLVESGGGLVQPGGSLRLSCAASGFTFNTYAMNWVRQAPGKGLEWVARIRSKYNNYATYYADSVKDRFTISRDDSKSSLYLQMNNLKTEDTAMYYCVRHGNFGNSYVSWFAYWGQGTLVTVSS
VL: QAVVTQEPSFSVSPGGTVTLTCRSSTGAVTTSNYANWVQQTPGQAFRGLIGGTNKRAPGVPARFSGSILGNKAALTITGAQADDESIYFCALWYSNLWVFGGGTKLTVL
B8: IgG1-huCD3-H1L3 (antibody, V domains shown)
VH: EVKLVESGGGLVQPGGSLRLSCAASGFTFNTYAMNWVRQAPGKGLEWVARIRSKYNNYATYYADSVKDRFTISRDDSKSSLYLQMNNLKTEDTAMYYCVRHGNFGNSYVSWFAYWGQGTLVTVSS
VL: QAVVTQEPSFSVSPGGTVTLTCRSSTGAVTTSNYANWVQQTPGQAFRGLIGGTNKRAPGVPARFSGSILGNKAALTITGAQADDESDYYCALWYSNLWVFGGGTKLTVL
B9: IgG1-huCD3-H1L1 (antibody, V domains shown)
VH: EVKLVESGGGLVQPGGSLRLSCAASGFTFNTYAMNWVRQAPGKGLEWVARIRSKYNNYATYYADSVKDRFTISRDDSKSSLYLQMNNLKTEDTAMYYCVRHGNFGNSYVSWFAYWGQGTLVTVSS
VL: not shown
B10: IgG1-huCD3-H1L3, wild type Fc region (antibody, V domains shown)
VH: EVKLVESGGGLVQPGGSLRLSCAASGFTFNTYAMNWVRQAPGKGLEWVARIRSKYNNYATYYADSVKDRFTISRDDSKSSLYLQMNNLKTEDTAMYYCVRHGNFGNSYVSWFAYWGQGTLVTVSS
VL: QAVVTQEPSFSVSPGGTVTLTCRSSTGAVTTSNYANWVQQTPGQAFRGLIGGTNKRAPGVPARFSGSILGNKAALTITGAQADDESDYYCALWYSNLWVFGGGTKLTVL
B11: IgG1-huCD3-H4L1, wild type Fc region (antibody, V domains shown)
VH: EVKLVESGGGLVKPGRSLRLSCAASGFTFNTYAMNWVRQAPGKGLEWVARIRSKYNNYATYYADSVKDRFTISRDDSKSILYLQMNSLKTEDTAMYYCVRHGNFGNSYVSWFAYWGQGTMVTVSS
VL: not shown
B12: IgG1-huCD3-H1L2, wild type Fc region (antibody, V domains shown)
VH: EVKLVESGGGLVQPGGSLRLSCAASGFTFNTYAMNWVRQAPGKGLEWVARIRSKYNNYATYYADSVKDRFTISRDDSKSSLYLQMNNLKTEDTAMYYCVRHGNFGNSYVSWFAYWGQGTLVTVSS
VL: QAVVTQEPSFSVSPGGTVTLTCRSSTGAVTTSNYANWVQQTPGQAFRGLIGGTNKRAPGVPARFSGSILGNKAALTITGAQADDESIYFCALWYSNLWVFGGGTKLTVL
B13: IgG1-huCD3-H3L3, wild type Fc region (antibody, V domains shown)
VH: EVKLVESGGGLVKPGRSLRLSCAASGFTFNTYAMNWVRQAPGKGLEWVARIRSKYNNYATYYADSVKDRFTISRDDSKSILYLQMNSLKTEDTAMYYCVRHGNFGNSYVSWFAYWGQGTLVTVSS
VL: QAVVTQEPSFSVSPGGTVTLTCRSSTGAVTTSNYANWVQQTPGQAFRGLIGGTNKRAPGVPARFSGSILGNKAALTITGAQADDESDYYCALWYSNLWVFGGGTKLTVL
B14: BsIgG1 CD3 x HER2 (bispecific antibody)
chain 1: EVKLLESGGGLVQPKGSLKLSCAASGFTFNTYAMNWVRQAPGKGLEWVARIRSKYNNYATYYADSVKDRFTISRDDSQSILYLQMNNLKTEDTAMYYCVRHGNFGNSYVSWFAYWGQGTLVTVSA
chain 2: QAVVTQESALTTSPGETVTLTCRSSTGAVTTSNYANWVQEKPDHLFTGLIGGTNKRAPGVPARFSGSLIGDKAALTITGAQTEDEAIYFCALWYSNLWVFGGGTKLTVL
chain 3: QVQLVQSGAEVKKPGASVKVSCKASGYTFTNYGISWVRQAPGQGLEWMGWLSAYSGNTIYAQKLQGRVTMTTDTSTTTAYMELRSLRSDDTAVYYCARDRIVVRPDYFDYWGQGTLVTVSS
chain 4: EIVLTQSPATLSLSPGERATLSCRASQSVSSYLAWYQQKPGQAPRLLIYDASNRATGIPARFSGSGSGTDFTLTISSLEPEDFAVYYCQQRSNWPRTFGQGTKVEIK

T2 sequence (chain, as listed by the source, chain 1 of 4): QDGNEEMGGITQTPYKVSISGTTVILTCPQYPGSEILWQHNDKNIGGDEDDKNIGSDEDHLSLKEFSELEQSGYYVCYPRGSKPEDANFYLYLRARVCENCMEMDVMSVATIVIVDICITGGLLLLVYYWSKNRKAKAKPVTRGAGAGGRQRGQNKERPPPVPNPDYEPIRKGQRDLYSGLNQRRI
T2 sequence (chain, as listed by the source, chain 2 of 4): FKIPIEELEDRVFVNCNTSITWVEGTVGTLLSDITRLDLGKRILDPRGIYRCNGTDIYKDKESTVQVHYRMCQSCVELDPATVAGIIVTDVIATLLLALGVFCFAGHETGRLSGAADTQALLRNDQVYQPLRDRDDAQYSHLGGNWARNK
T2 sequence (P09693 23-182, chain 3 of 4): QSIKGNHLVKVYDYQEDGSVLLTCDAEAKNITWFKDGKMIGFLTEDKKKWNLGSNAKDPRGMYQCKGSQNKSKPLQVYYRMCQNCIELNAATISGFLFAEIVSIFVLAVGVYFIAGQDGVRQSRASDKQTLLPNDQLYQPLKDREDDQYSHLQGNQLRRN
T2 sequence (P20963 22-164, chain 4 of 4): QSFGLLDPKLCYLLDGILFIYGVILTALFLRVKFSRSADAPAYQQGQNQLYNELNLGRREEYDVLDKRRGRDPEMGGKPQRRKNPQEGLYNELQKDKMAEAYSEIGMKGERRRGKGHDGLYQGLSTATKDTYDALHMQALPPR
Chain of Jurkat (CD3) (chain, as listed by the source, chain 1 of 4): as the sequence (chain, as listed by the source, chain 1 of 4) above
Chain of Jurkat (CD3) (chain, as listed by the source, chain 2 of 4): as the sequence (chain, as listed by the source, chain 2 of 4) above
Chain of Jurkat (CD3) (P09693 23-182, chain 3 of 4): as the sequence (P09693 23-182, chain 3 of 4) above
Chain of Jurkat (CD3) (P20963 22-164, chain 4 of 4): as the sequence (P20963 22-164, chain 4 of 4) above

The first assay deals with T1, HSC-F (cynomolgous CD3) (cynomolgus monkey, UniProt Q95LI8 22-171; Q95LI7 23-181). Description: FACS binding, HSC-F. In general terms: A flow cytometer gives signals particle by particle.
T1 sequence (Q95LI7 whole entry, looked up, chain 1 of 2): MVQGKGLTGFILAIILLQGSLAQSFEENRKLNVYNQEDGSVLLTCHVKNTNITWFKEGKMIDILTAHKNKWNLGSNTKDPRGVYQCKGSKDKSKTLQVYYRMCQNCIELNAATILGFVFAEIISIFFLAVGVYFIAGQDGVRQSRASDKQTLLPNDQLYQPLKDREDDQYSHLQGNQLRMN
T1 sequence (Q95LI8 whole entry, looked up, chain 2 of 2): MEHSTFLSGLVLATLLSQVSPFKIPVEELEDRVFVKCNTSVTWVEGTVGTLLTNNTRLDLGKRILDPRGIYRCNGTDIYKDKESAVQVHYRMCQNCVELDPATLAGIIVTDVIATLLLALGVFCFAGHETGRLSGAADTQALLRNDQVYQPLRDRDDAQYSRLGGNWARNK
In the case of B1, a half-maximal effect (EC50) was put at 3.54 µg/mL.
Turning to B2, the midpoint of the response, the EC50, lay at 0.3 µg/mL.

Another assay concerns the target T2, human CD3 on the human T-cell line Jurkat (human, UniProt P09693 23-182; P20963 22-164). As to the kind of experiment: FACS binding, Jurkat.
In the case of B3, the EC50 (commonly the midpoint of the concentration-response curve) amounted to 0.28 µg/mL.
In turn, B4 yielded an EC50 of 0.04 µg/mL.

The target in the next assay is T1, HSC-F (cynomolgous CD3). Description: FACS binding, HSC-F. The source holds these as a separate data set.
In the case of B5, the half-maximal effective concentration (EC50) amounted to 0.26 µg/mL.
Same read-out and setting: the same measure for B6: 0.11 µg/mL.
On the same count and under the same terms, in the case of B7 it was 0.31 µg/mL; in that of B8, 0.28 µg/mL.
Still for that read-out and setting: in the case of B2 it was 0.19 µg/mL; in that of B9, 0.37 µg/mL.

The next assay concerns the target T2, human CD3 on the human T-cell line …. Description: FACS binding, Jurkat. This is another data set of the same source.
In turn, B10 gave an EC50 of 0.06 µg/mL.
Regarding B11, the 50% effective concentration (EC50) came to 0.05 µg/mL.
B4 returned an EC50 of 0.04 µg/mL.
As to B12, the EC50 is 0.08 µg/mL.
The same measure, in the same setting: in the case of B13 it was 0.02 µg/mL.

A further assay concerns the target Jurkat (CD3) (human, UniProt P09693 23-182; P20963 22-164). As to the kind of experiment: FACS binding, Jurkat.
Regarding B14, the 50% effective concentration (EC50) is 0.68 µg/mL.
